Here are results for 18 sequences from the DeepSol protein solubility set.

This series is described as follows: soluble on expression in E. coli; label from the status in PepcDB or PDB records.
Take “MGSDKIHHHHHHMGYAMRLALIDGEHYPDVNRWALEKLKVDCAVFVGGMEKIGSIRDVERTLSIKLYYDEDIFKALERAIEENEIREVIDLSDEPVLTPEIRFRIASFLLKRGITYIGADFEFKPKEWIKIDVPSINIIGTGKRIGKTAIGGFVGRTLKEEYKVVIVTMGRGGPESPEVIRGDLMEITPEFLVEVSEKGRHAASDHFEDALTAGVATVGCRRCGGGLAGFTFLDVLQKGIEVAKSLNPEIIVFEGSGASFANVLSEGFITVVSALQGKEIKMYLYPLRISLGDLIVVTMADEVKDPGKISSLIKEINPDADIHLTRFSPRLIGNVEGKAVVVTTSTNSAKRVTKELEDRGIDVVGFSGNLANRVKLREELKKVSYDTLIVELKAGAVDVAIKSALRSGKRIVFLDYEPKNIDDKDLRESVKELARRIVNDKGHRKGR”: the “soluble on expression in E. coli” value is “not soluble”.

For “MQARRYLLRPAARLRRSRRIATAAPERLWLFDLDNTLHDTSHAIFPLIDRGMTEAVAETLAVDEATANRLRAEYWRRYGATVIGLVRHHGVDADAFLHRSHNFEVAPLVRAETALADKLRRLPGRKVLLTNAPLHYARAVLRHLGLLRQFDSIWAIEQMCMHGQFRPKPSDALLRYVLAREGVPAARAVLIEDTLDNLRSARRVGLRTVHVFHPGTPFARGHRQRPGYVDLRVNSVSDLLLRRRPLRG”, the “soluble on expression in E. coli” value was “not soluble”.

For “MSGAEQKVAYSLVSSGSLMSVNPGMARWIKELFCHNERVVLTGDWKHGFLSLTAVGATNVGSIRIHFN”, the “soluble on expression in E. coli” value is reported as “not soluble”.

For “MSLIEPDHPDLSIGQQCKLLSIARSSYYYEPKGETEQNLGLMRRIDEQFLETPFFGVRQMTWHLRNDGHLVNEKRIRWLMRLMGLMPIYQKPNTNRPTKGHKTYPYLLRGLRVERPNQVWCSDITYLPMRRGFLYLVAIMDWHTRKVLSWRISNTLEAQFCVDALNEAIHKFGPPEIMNTDQGSQFTSFAWTDRLRRSGVRISPLAHENMRCRAADGRERSVPPLSWFASKPLSGNGQHLHREAVAHPEIRVRLPACLGDRFGDKGGHPEMDDLLQPPAPAFSPRRQATGAGLLAEKEGHHHHHH”, the “soluble on expression in E. coli” value is listed as “not soluble”.

For the sequence “MGSDKIHHHHHHMLHGTTTKAADALDITQPAVSKILLQLTNKAGFPLFRNHRQRLIPTPEAHMLYAEVRRLFETVRGISQIAKEIRELRSGRLNISALPAFGSTLMPSIIASFTKQYPDVAITLDIRSSSTIIQRAGRNQLDIGVASEVNDETPSVVRRALIATPPVCVMPKGHPLSKLSVVQPDDFDGLNFVSLGVGDPMRKQLDELCEQRGVNRSLKVEAALSHSCINLVANGVGVTVVDRLSAWMAKDLPIEIRDFQPHLDINLSVYRPWGTIASSVADTFIEHLIQSTREYMNVVDRGIKALSEQ”, the “soluble on expression in E. coli” value is recorded as “not soluble”.

For “MGSDKIHHHHHHDKTVKENGRTLHNGIVLPEQWPPSMIDDGVRREMSLPYISNKPTVISVNLGRQLFVDDFLIAETDMERVSHKAMFYENNPVLAPDKEWEYTFERAPYAAPFSDGIWYDESEQKFKMWYLAGAGSMHKHRQSFYTCYAESKDGKHWEKVNMDIVPGTNIVDTCDRDAATVWLDKMCPEPEKRFKLFNVEKHSGGWKIILKYSKDGIHWSEGVAQSGPVGDRTTAFYNPFTQKWAISLRQGSKADGRSRGYLENEDPEMAVSVAHSLAKGIKDKNIVLWFTPSDKELPHPEFPDVRPAIYNFDAMPYESVMLGFYAMWKGPENDLCGKLGIQKRNEIGMGYSRDGFHFYRPSYEPVMGVNETEGAWNWGNMQSVIGVPLIVGDSLYLYSSGRMKNKVMWDGFTSTGLATLRRDGFVSMHTDTEGVLVTEKIKFDGNHFFVNAQAKDLQVEIMDENGNVITGFSREDCKEMNDLNSTKQLVTWKSGKKLAALSGKIVKVKFYVTCGDLYAFWISPWDTGESRGYTGGGGPGLNPCGIDIK”, the “soluble on expression in E. coli” value is recorded as “not soluble”.

Consider “GPGSMGCLPPDDLGPFVSDHVDVNEAEPVPLSDEDLDLLVRYSLLPTDVVREAWAVFNHYRVVECLRAQQRHYAMTGHLPQKSTVSMSARPFPVAECGGKLFTTPVRAASGDCNAVKEEEKAPVSPRDCVTGENSECRKEEVEVAVLGAEGLRQFFEDTGAPIPTLEVTSFLRRMSQPPVEYLLYQRALEEKLTGAAAAAAPPREESPGVGQRKKSPQTDQSKHNKGQSVGRGQRPNNNTKSLNILVDDHIDLLEEQRGSGGETVTFPLFLYILSNAELGKNFTADVRESEINTLFRTLDVDGDGVVSVDDIQRLLEERCSLGDTLYEDRDIRYLRGMNLTELKAALRECDVDEDGAVRLNDFRSVLSS”, for which the “soluble on expression in E. coli” value was “soluble”.

In the case of “GSEELLDLFNRQVTQEFTASQVYLSASIWFDQNDWEGMAAYMLAESAEEREHGLGFVDFANKRNIPIELQAVPAPVSCAEWSSPEDVWQSILELEQANTRSLLNLAEAASTCHDFAVMAFLNPFHLQQVNEEDKIGSILAKVTDENRTPGLLRSLDVVSFLGPCLFRS”, the “soluble on expression in E. coli” value is “soluble”.

As for “MLADKVKLSAKEILEKEFKTGVRGYKQEDVDKFLDMIIKDYETFHQEIEELQQENLQLKKQLEEASKKQPVQSNTTNFDILKRLSNLEKHVFGSKLYD”, the “soluble on expression in E. coli” value was “not soluble”.

“MGHHHHHHSHDSKACISIGNQNFEVKADDLEPIMELGRGAYGVVEKMRHVPSGQIMAVKRIRATVNSQEQKRLLMDLDISMRTVDCPFTVTFYGALFREGDVWICMELMDTSLDKFYKQVIDKGQTIPEDILGKIAVSIVKALEHLHSKLSVIHRDVKPSNVLINALGQVKMCDFGISGYLVDSVAKTIDAGCKPYMAPERINPELNQKGYSVKSDIWSLGITMIELAILRFPYDSWGTPFQQLKQVVEEPSPQLPADKFSAEFVDFTSQCLKKNSKERPTYPELMQHPFFTLHESKGTDVASFVKLILGD”: the “soluble on expression in E. coli” value is “not soluble”.

For “MGSDKIHHHHHHMTEKVSRFPGVFPLIVIGVPGSVDKTHKKLAFAPNLNRWRDIDVEKYFKVFEVYLENDANLAALAEMMRNKHFGDRKNIVYILVREGIGGGIIIEGKLYKGSFNAAGEIGHMKMYDRGPCFCGRVGCWEANTSISHCVRQYEKKKPLPGNTMYEKFETLCRIYEEDPLAKEVLDEFTGILIDGIVNLVNILSPEIVIVGGEGVFLPESVFEVIVSETRRQVHPMDKEVSVEKGSLSNKEVVLEGTSILSSMMISERLV”, the “soluble on expression in E. coli” value was “not soluble”.

With “MGSDKIHHHHHHVSKPPTIVSVPMPCGSTIEIVAPGSFHIPRVLADGGLKNYEVHSTAAALALMERSEGAFYDIGANIGVFSLCVASALRRRCHAYEPFPDAATVLDELQVRYQLPIAVHRKGVGQTAGQAQFYLSDRSDMSNSLNPNFRKHRGVLDVEVTTLEIELKRDKPAVLKIDTETTEDQVITGGLNQIAHHRPSIIVELLNEAIAGKVRKLLLPLGYRCYAIGGGLRLQELSPIETSLEGDGRNWLFSPNPLDQEFADTFNKWRGVLFSI”, the “soluble on expression in E. coli” value was “not soluble”.

On to “MGSDKIHHHHHHMNIDKLDYHSLIIFESISRHLNAGLVANELGMSISSVSRHLGILRDIFKDVLFIRRAQGFVLSDKAIQLLPYIKQLLHDYQVIKHNHIHFNPLTARGHFKIYAYNEFTYVINKVIHQYILPQAPNLTFEVRTLSSDCSRAIEHGEIDFAVVYERFKDHKIICEMFSPTEELFLIAKEGHAVFEDEFTLANLCQYDYFALDNYNDLPMPLLEQLGKTEGKAVNVLGATDNIAALSRHILDGRAISMSCNVFTREFYSLIKGIRTATLPSALTERLLKQITVGRTVGNYLIYSEINQSPTHHWLKQQLFNGIRDEWYLAMGR”, for which the “soluble on expression in E. coli” value is “not soluble”.

As to “MNYAGSEKRVAIEEKKKIVEFLWKRNEEQEIVGHIYIGRIVRTIAGMNAAFVNIGLEKHAYLSYDDVPSAYRIHEGQAVLVQVVKEAIDTKGPKLTANIEFTGKYVVYMPYDEMRAVSRKIKNNKRRQQLLQIEVEGTGGYIFRSASEKGEIEEIQAEMQRLQQLYEELKRKEEQGKAPLLLHRPATFLDRVFQENPIETIEKVVVDTRSIVKELEEKVGKEKVSFYNEKSSMFNHFGIEREIEKALQKIVWLPNGAYLIVEQMETMTVIDVNTGKFTGKQNLQDTVLRTNELAAEEIARQLRLRDIGGMILIDFINMKRREDKEKVRECLVAAMQNDRTYTRVLGFTELGILEMTRKRKKHSLRDVLLEECAPCKATGYVMSYETIAYELERELLTYGNIEDEAVLISAPKELQKQFLQKELQKNIPFEIYFKDDMIEKYAIIRFGSKKEIVERKNS”, the “soluble on expression in E. coli” value is on record as “not soluble”.

Turning to “MTTHSAHLLRRLNPYCAQALAGAATLCQTRAHAEITVEHWLLKLLEQGEGDITVIARRYEWDMDSLWQGLLSHLDTLPRTVQGKPQLSAALQQLIKNAWLDASLQENADAVRSVHLMAALIATPSLLVAEAAWPLLSLSTTQLQRLLPLLDNQSDERPEVQQAAALADSPVNLTDEAATVTSASGQPQLNDALQAALDKFTLDVTAKARANQIDPIFGRDSEIRQMIDILSRRRKNNPILVGEPGVGKTALVEGLALRIADGNVPDSLKTVSVRTLDLGLLQAGAGVKGEFEQRLKNVIEAVQQSPSPVLLFIDEAHTIIGAGNQAGGADAANLLKPALARGELRTIAATTWSEYKQYFERDAALERRFQMVKVDEPDDDTACLMLRGLKERYATHHGVHILDAAITAAVTLSRRFLTGRQLPDKAVDLLDTAGARVRMSIDTLPTALMEINAELAALAMEQQAIEQDLLLLPNVSSTRLPEIEQRRAALAVGQHTLEQQYKEEKRLTTLIIEARQDIANAAHLVALQEELVQIQGNAPLLSLDVDVRTVAAVIADWTGVPLGSLLKDEQTNLLSLENRLGERVIGQDAALGALAQRLRAAKTGLTSENGPLGVFLLVGPSGIGKTETALALADSLFGGEKSLITINLSEYQEAHTVSQLKGSPPGYVGYGQGGVLTEAVRKRPYSVVLLDEVEKAHRDVLNLFYQVFDRGFMRDGEGREIDFRNTVIVMTANLGSDHLMQLLDEQPDAPDSTLHELLRPILRDHFQPALLARFQTLIYRPLQVDALKRIVAIKLNQVAQRLHCHYGLSCQIEDSLTDTLVAACLLPDTGARNIDSLLNQQILPVLSQQLLSRMSEQQRTTSLTLGWHEEDGITLTFEGE”, the “soluble on expression in E. coli” value is listed as “not soluble”.

Turning to “MSLSRFYHNLKFRSIPTTCATAQMCADRDEMQDSLICIPHFAAPEHYLFAGIDGHSGKYVSYKFSIRFPEIFYEMLSRDSGALNIIDALYQSFDTIQNEFANDPNVTDGAVATVIFMTPTKIYTAQCGDCRAVYITSSGVVQLAPEHKTSDRIEQMRIRSQGGFVSENLRVCGLLVARSVGDVKNKPIITHVPDITCFDRRDDEEYLVVATDGVWDEISNLKIHDILHSNRRVYRTSELSGLVKDIACVSCISGQHPDNIGIVLCRFEGHHHHHH”, the “soluble on expression in E. coli” value was “soluble”.

Consider “MGSDKIHHHHHHMSYVAVKGGSTAIRAAHRLVRKRMRGDPDAPEITPRQICEQMHLGVDRVMAEASLYDEDLAARAMLQAQGDMIEAIFLLRAYRATLTRFLDSTPLAMDTMRVQRRISAAFKELPGGQQLGQTYDYSHRLFGYFDRLETKSDIESGKTEVPPEPMTSVMDLLEKEGLMELAAACEPPAENMQQDITRHPLLFPATRAQRLQSLARGDEGFLLSMAYSTQRGYGQNHPFIAELRMGDVTVEITPPELGFPIEIGTITVTECQMINQFQARSPEEAAFTRGYGLVFGHSERKAIAMALVDRALRAGELGEEALSPAQNEQFVLSHCDNVETTGFVEHLKLPHYVDFQSEIQTLRHLHKTAAKDGADRV”, for which the “soluble on expression in E. coli” value is on record as “not soluble”.

“ERNKVESTLLDKVLFLETLVDTIPAPVFYKDREGIYRGCNDLFAKMILGIPKEKVAGCSIDEFLEKIPQELGNVYKRTDRQLLQRGGSLIYESRIMCSDGLLRQFLINKAAYRNLNGDMEGLVGVMLDIT”: the “soluble on expression in E. coli” value is reported as “not soluble”.
